Data taken from patent publication US20180237511A1 (Sanofi, published 2018).
Like-named read-outs stand apart in the source and are kept apart here.

Experiments:
[1] = molecular target: murine laminin G-like 5 domain of laminin-2 (mLG-5) (mouse) (UniProt Q60675); experiment: SPR (Biacore) kinetics; mAb immobilized, mLG-5 in flow
[2] = molecular target: T1, human laminin G-like 5 domain of laminin-2 (hLG-5) (human, UniProt P24043 2936-3122, soluble biotinylated protein (Avi tag)); experiment: SPR (Biacore) kinetics; mAb immobilized, hLG-5 in flow
T1 construct: The construct used for the crystal structure with C21 Fab is not described; the same entry is used; also called human LG-5; human LG5; not shown: N-terminal Avi and HPC4 tags
T1 sequence: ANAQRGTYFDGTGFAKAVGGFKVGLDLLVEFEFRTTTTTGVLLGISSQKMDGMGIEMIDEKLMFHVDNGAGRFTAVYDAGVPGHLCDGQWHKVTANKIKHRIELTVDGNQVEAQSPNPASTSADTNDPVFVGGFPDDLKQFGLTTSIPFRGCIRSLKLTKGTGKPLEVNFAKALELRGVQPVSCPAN

[3] = molecular target: T2, human laminin G-like 4 and 5 domains of laminin-2 (hLG-4/5), soluble (human, UniProt P24043 2729-3122, biotinylated in the ELISA of Example 6); experiment: SPR (Biacore) kinetics, antibody as ligand on the chip, hLG4/5 monomer in flow, fit 1:1 Binding
T2 construct: range 2729-3122; also called human LG-4/5; hLG4/LG5; not shown: Avi tag and HPC4 tag left after TEV cleavage of the N-terminal mIgG2a fusion partner
T2 sequence (looked up): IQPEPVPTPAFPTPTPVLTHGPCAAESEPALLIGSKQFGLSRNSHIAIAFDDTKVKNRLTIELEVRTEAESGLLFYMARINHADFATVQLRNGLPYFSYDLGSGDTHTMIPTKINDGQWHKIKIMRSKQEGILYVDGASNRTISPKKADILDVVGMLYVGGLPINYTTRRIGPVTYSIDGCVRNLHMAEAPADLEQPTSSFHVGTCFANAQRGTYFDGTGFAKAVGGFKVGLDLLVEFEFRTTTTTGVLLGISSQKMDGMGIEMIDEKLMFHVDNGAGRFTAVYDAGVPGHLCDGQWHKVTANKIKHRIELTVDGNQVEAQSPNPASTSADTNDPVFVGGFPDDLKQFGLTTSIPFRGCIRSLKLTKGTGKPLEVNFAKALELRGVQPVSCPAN

[4] = molecular target: T3, murine laminin G-like 4 and 5 domains of laminin-2 (mLG-4/5), soluble (mouse, UniProt Q60675 2725-3118); experiment: SPR (Biacore) kinetics, antibody as ligand on the chip, mLG4/5 monomer in flow, fit 1:1 Binding
T3 construct: range 2725-3118; also called murine LG-4/5; not shown: Avi tag and HPC4 tag left after TEV cleavage of the N-terminal mIgG2a fusion partner
T3 sequence (looked up): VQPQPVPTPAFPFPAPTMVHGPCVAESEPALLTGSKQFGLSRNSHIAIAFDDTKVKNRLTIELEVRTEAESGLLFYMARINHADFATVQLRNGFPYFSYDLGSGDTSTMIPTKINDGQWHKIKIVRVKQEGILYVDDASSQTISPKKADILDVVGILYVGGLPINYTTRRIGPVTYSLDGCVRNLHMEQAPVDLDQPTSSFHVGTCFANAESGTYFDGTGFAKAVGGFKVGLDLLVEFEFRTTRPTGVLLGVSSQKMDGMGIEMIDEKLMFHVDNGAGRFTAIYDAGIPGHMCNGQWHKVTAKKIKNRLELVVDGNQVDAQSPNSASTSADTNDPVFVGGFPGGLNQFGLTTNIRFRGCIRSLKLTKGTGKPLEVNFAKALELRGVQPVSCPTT

[5] = molecular target: T4, human beta-DG fused to the human hIgG1 Fc antibody region (hbeta-DG-hFc) (human, UniProt Q14118 654-749, limits assumed); experiment: double deck sandwich ELISA: plate coated with human LG-4/5, then mAb, then hbeta-DG-hFc, HRP anti-hFc
T4 construct: not shown: human IgG1 Fc region
T4 sequence (looked up): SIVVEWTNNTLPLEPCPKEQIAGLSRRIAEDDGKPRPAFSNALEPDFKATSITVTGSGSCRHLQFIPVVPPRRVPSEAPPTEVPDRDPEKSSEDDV
Experimental: (§1) 96-well plates were coated with 50 ng human LG-4/5 and blocked with 5% fetal bovine serum in PBS. Each well was incubated with 1 μg of the generated bispecific antibodies (murine IgG backbone). After 2 hours, wells were washed with PBS and re-incubated with 16 ng to 1 μg per well of human beta-DG fused to the human hIgG1 Fc antibody region (hbeta-DG-hFc). After 2 hours, wells were washed with PBS, incubated with a HRP conjugated anti-hFc secondary antibody for 45 minutes, washed again with PBS, and developed for colorimetric measuring.
(§2) Colorimetric signals could be detected only when hLG-4/5 and hbeta-DG-hFc were both added in the assay (FIG. 7). No signal was detected when parental monoclonal antibodies were used or when hbeta-DG-hFc was omitted. Three bispecific antibodies (biAbs), T1T2, T5T6, and C5C6, had the anticipated signal indicating simultaneous binding to both targets. The parental anti-LG4/5 or anti-beta-DG mAbs, or biAbs without beta-DG-hFc in the 2nd step were all negative in this assay.

[6] = molecular target: T5, human beta-dystroglycan extracellular domain (soluble) (human, UniProt Q14118 654-749); experiment: sequential SPR (Biacore): antibody immobilised on a CM5 chip, human LG-4/5 and then human beta-DG flowed over
T5 construct: extracellular domain; The expression construct of soluble human beta-DG is not described (only the mouse one); also called hBeta-DG; hbeta-DG
T5 sequence (looked up): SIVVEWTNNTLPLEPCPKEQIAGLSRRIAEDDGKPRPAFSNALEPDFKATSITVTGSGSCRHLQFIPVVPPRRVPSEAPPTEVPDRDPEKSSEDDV
Experimental: Parental monoclonal antibodies (AS19, C3 and C21) and three bispecific antibodies (AS19×C3 and AS30×C3 in TBTI, and AS30×C3 in CODVIg) were each immobilized onto individual CM5 Series S Biacore chips (GE Healthcare). Human or murine LG-4/5, followed in sequence by human or murine beta-DG, was flown over each chip and binding was assessed.
Parental mAbs to LG-4/5 or beta-DG and biAbs of anti-LG4/5 and beta-DG were captured onto biacore chips, and then flowed with human LG4/5 and human beta-DG sequentially to determine their concurrent bindings to both antigens. […] In contrast, parental monoclonal antibodies were only able to bind to one target, either LG-4/5 (C3 and C21 in FIGS. 6A & 6B) or beta-DG (AS19 in FIGS. 6A & 6B).

[7] = molecular target: T2, human laminin G-like 4 and 5 domains of …; experiment: SPR (Biacore) kinetics, antibody as ligand on the chip, hLG4/5 monomer in flow, fit 1:1 Binding; remark: listed apart in the source
[8] = molecular target: T3, murine laminin G-like 4 and 5 domains …; experiment: SPR (Biacore) kinetics, antibody as ligand on the chip, mLG4/5 monomer in flow, fit 1:1 Binding; remark: listed apart in the source
[9] = molecular target: T4, human beta-DG fused to the human hIgG1 …; experiment: double deck sandwich ELISA: plate coated with human LG-4/5, then biAb, then hbeta-DG-hFc, HRP anti-hFc; a signal needs both bindings at once
Experimental: as §1, §2

Binder	Kd [1] [nM]	koff [1] [s⁻¹]	kon [1] [M⁻¹ s⁻¹]	Kd [2] [nM]	koff [2] [s⁻¹]	kon [2] [M⁻¹ s⁻¹]	Kd [3] [nM]	koff [3] [s⁻¹]	kon [3] [M⁻¹ s⁻¹]	Kd [4] [nM]	koff [4] [s⁻¹]	kon [4] [M⁻¹ s⁻¹]	binding result [5]	binding result [6]	koff [7] [s⁻¹]	kon [7] [M⁻¹ s⁻¹]	koff [8] [s⁻¹]	kon [8] [M⁻¹ s⁻¹]	binding result [9]
anti-laminin-2 antibody derived from hybridoma clone C21 (antibody, V domains shown, Hybridoma monoclonal antibody (detected with anti-mouse IgG); also called anti-laminin-2(C21)) VH: EVMLVESGGGLVKPGGSLKLSCAASGFTFSSYTMSWVRQTPEKRLEWVATISSGGDNTYYPDSVKGRFTISRDNAKNNLYLQMSSLRSEDTALYYCARFDYGSSLDCWGQGTTLTVSS VL: DIVLTQSPATLSVTPGDSVSLSCRASQSISNYLHWYQQKSHESPRLLIKYASQSISGIPSRFSGSGSGTDFTLSINSVETEDFGMYFCQQSKSWPRTFGGGTELEIK	3.04	0.00253	813000	2.8	0.00131	467000	2.8	0.00131	467000	3.04	0.00253	813000	no binding (tested: 1000 ng/ml)	no binding	–	–	–	–	–
anti-laminin-2 antibody derived from hybridoma clone C3 (antibody, V domains shown, Hybridoma monoclonal antibody (detected with anti-mouse IgG); also called C03; anti-laminin-2(C3)) VH: DVMLVESGGDLVKPGGSLKLSCAASGFTFSSYTMSWVRQTPEKRLEWVASISSGGGNTYYPDSVKGRFTISRDNAKNNLYLQMSSLRSEDTALYYCARFDYGSSLDSWGQGTTLTVSS VL: DIVLTQSPATLSVTPGDSVSLSCRASQSISNNLHWYQQKSHESPRLLIKYASQSISGIPSRFSGSGSGTDFTLSINSVETEDFGMYFCQQSKNWPRTFGGGTKLEIK	8.27	0.00429	519000	2.66	0.0013	488000	–	–	–	–	–	–	no binding (tested: 1000 ng/ml)	no binding	0.0013	488000	0.00429	519000	–
bispecific antibody T1T2: anti-beta-DG(AS19) x anti-laminin-2(C3), TBTI with (GGGGS)2 linker (bispecific antibody, also called AS19xC3 in TBTI; biAb (AS19xC3); not shown: IgG1 heavy chain constant region: murine IgG1 (GenBank AAA75163.1) or human IgG1 (Genbank Q569F4); murine IgG backbone i; kappa light chain constant region: murine kappa chain (Genbank BAB33404) or human kappa chain (Genbank Q502W4)) heavy: QVQLQQSGPELVKPGASVKMSCKASGFTFTDSVISWVKQRTGQGLEWIGEIYPGSGSIYYNEKFKGKATLTADKSSNTAYMQLRSLTSEDSAVYFCAMRRSYWGQGTLVTVSAGGGGSGGGGSDVMLVESGGDLVKPGGSLKLSCAASGFTFSSYTMSWVRQTPEKRLEWVASISSGGGNTYYPDSVKGRFTISRDNAKNNLYLQMSSLRSEDTALYYCARFDYGSSLDSWGQGTTLTVSS light: DVLMTQTPLSLPVSLGDQASISCRSSQSIVHSNGNTYLEWYLQKPGQSPKLLIYKVSNRFSGVPDRFSGSGSGTDFTLKISRVEAEDLGVYYCFQGSHVPLTFGAGTKLELKGGGGSGGGGSDIVLTQSPATLSVTPGDSVSLSCRASQSISNNLHWYQQKSHESPRLLIKYASQSISGIPSRFSGSGSGTDFTLSINSVETEDFGMYFCQQSKNWPRTFGGGTKLEIK	–	–	–	–	–	–	–	–	–	–	–	–	–	binds	–	–	–	–	binds
